Test results taken from PMC4746669, “Attenuation of ligand-induced activation of angiotensin II type 1 receptor signaling by the type 2 receptor via protein kinase C” (Scientific Reports, 2016).

B1: FLAG-AT2R-CFP (angiotensin II type 2 receptor) [human] / HA-AT1R-YFP (angiotensin II type 1 receptor) [human] (parent)
chain 1: MKGNSTLATTSKNITSGLHFGLVNISGNNESTLNCSQKPSDKHLDAIPILYYIIFVIGFLVNIVVVTLFCCQKGPKKVSSIYIFNLAVADLLLLATLPLWATYYSYRYDWLFGPVMCKVFGSFLTLNMFASIFFITCMSVDRYQSVIYPFLSQRRNPWQASYIVPLVWCMACLSSLPTFYFRDVRTIEYLGVNACIMAFPPEKYAQWSAGIALMKNILGFIIPLIFIATCYFGIRKHLLKTNSYGKNRITRDQVLKMAAAVVLAFIICWLPFHVLTFLDALAWMGVINSCEVIAVIDLALPFAILLGFTNSCVNPFLYCFVGNRFQQKLRSVFRVPITWLQGKRESMSCRKSSSLREMETFVS
chain 2: MILNSSTEDGIKRIQDDCPKAGRHNYIFVMIPTLYSIIFVVGIFGNSLVVIVIYFYMKLKTVASVFLLNLALADLCFLLTLPLWAVYTAMEYRWPFGNYLCKIASASVSFNLYASVFLLTCLSIDRYLAIVHPMKSRLRRTMLVAKVTCIIIWLLAGLASLPAIIHRNVFFIENTNITVCAFHYESQNSTLPIGLGLTKNILGFLFPFLIILTSYTLIWKALKKAYEIQKNKPRNDDIFKIIMAIVLFFFFSWIPHQIFTFLDVLIQLGIIRDCRIADIVDTAMPITICIAYFNNCLNPLFYGFLGKKFKRYFLQLLKYIPPKAKSHSNLSTKMSTLSYRPSDNVSSSTKKPAPCFEVE

Variants of: B1
Assay: FRET fluorescence microscopy in live HeLa cells (corrected FRET, FRETC)
Conditions: with HA-AT1R-YFP (angiotensin II type 1 receptor) [human]; value read at the end of the time course (about 50 min after AII stimulation at time 0); HeLa cells 24 h after transfection; n = 4; parent: 1.3; read off a …

Row | response | Variant
1 | 0.97 -fold | chain 1 S352A S353A S354A
